Data taken from patent US20150065381A1.
“And” between values parts separate entries of the source, which are not always exact repeats. Equal values may be shown once.

Assays:
[1] = biological target: HIV-1 envelope clone G-011.c02 (multiclade gp160 clone panel) (HIV-1); assay: capture ELISA, plate 2, mAb 0.8 ug/ml
[2] = biological target: HIV-1 envelope of gp160 clone B-Acute-010.c08 (HIV-1); assay: capture ELISA, plate 2, mAb 0.8 ug/ml
[3] = biological target: HIV-1 envelope of gp160 clone B-Chronic-014.c02 (HIV-1); assay: capture ELISA, plate 2, mAb 0.8 ug/ml
[4] = biological target: HIV-1 envelope of gp160 clone B-Acute-010.c09 (HIV-1); assay: capture ELISA, plate 2, mAb 0.8 ug/ml
[5] = biological target: HIV-1 envelope clone G-011.c02 (multiclade gp160 clone panel) (HIV-1); assay: capture ELISA, plate 1, mAb 0.3 ug/ml
[6] = biological target: HIV-1 envelope clone G-011.c05 (multiclade gp160 clone panel) (HIV-1); assay: capture ELISA, plate 1, mAb 0.3 ug/ml
[7] = biological target: HIV-1 16055 envelope (HIV-1); assay: capture ELISA, plate 1, mAb 0.3 ug/ml
[8] = biological target: HIV-1 envelope of gp160 clone B-Acute-008.c11 (HIV-1); assay: capture ELISA, plate 1, mAb 0.3 ug/ml
[9] = biological target: HIV-1 envelope of gp160 clone B-Acute-010.c08 (HIV-1); assay: capture ELISA, plate 1, mAb 0.3 ug/ml
[10] = biological target: HIV-1 envelope of gp160 clone B-Acute-009-c08 (HIV-1); assay: capture ELISA, plate 1, mAb 0.3 ug/ml
[11] = biological target: HIV-1 envelope of gp160 clone B-Chronic-014.c02 (HIV-1); assay: capture ELISA, plate 1, mAb 0.3 ug/ml
[12] = biological target: HIV-1 envelope of gp160 clone AG-010.c11 (HIV-1); assay: capture ELISA, plate 1, mAb 0.3 ug/ml
[13] = biological target: HIV-1 JRCSF envelope (HIV-1) (UniProt P20871); assay: capture ELISA, plate 1, mAb 0.3 ug/ml
[14] = biological target: HIV-1 envelope of gp160 clone AG-010.c14 (HIV-1); assay: capture ELISA, plate 1, mAb 0.3 ug/ml
[15] = biological target: HIV-1 envelope of gp160 clone B-Acute-010.c09 (HIV-1); assay: capture ELISA, plate 1, mAb 0.3 ug/ml
[16] = biological target: HIV-1 JRFL envelope (HIV-1); assay: capture ELISA, plate 1, mAb 0.3 ug/ml
[17] = biological target: HIV-1 envelope clone G-011.c02 (multiclade gp160 clone panel) (HIV-1); assay: capture ELISA, original data
[18] = biological target: HIV-1 envelope clone G-011.c05 (multiclade gp160 clone panel) (HIV-1); assay: capture ELISA, original data
[19] = biological target: HIV-1 envelope of gp160 clone B-Acute-008.c11 (HIV-1); assay: capture ELISA, original data
[20] = biological target: HIV-1 envelope of gp160 clone B-Acute-010.c08 (HIV-1); assay: capture ELISA, original data
[21] = biological target: HIV-1 envelope of gp160 clone B-Chronic-014.c02 (HIV-1); assay: capture ELISA, original data
[22] = biological target: HIV-1 envelope of gp160 clone AG-010.c11 (HIV-1); assay: capture ELISA, original data
[23] = biological target: HIV-1 envelope of gp160 clone AG-010.c14 (HIV-1); assay: capture ELISA, original data
[24] = biological target: HIV-1 envelope of gp160 clone B-Acute-010.c09 (HIV-1); assay: capture ELISA, original data
[25] = biological target: BG505 envelope (gp120 monomer released from lysed pseudovirus) (HIV-1); assay: antigen capture ELISA, mAb 7.5 ug/ml, plate 1
[26] = biological target: aMLV envelope (from lysed pseudovirus); assay: antigen capture ELISA, mAb 7.5 ug/ml, plate 1
[27] = biological target: HIV-1 envelope of gp160 clone B-Acute-009-c08 (HIV-1); assay: capture ELISA, plate 1, mAb 7.5 ug/ml
[28] = biological target: HIV-1 envelope of gp160 clone AG-010.c11 (HIV-1); assay: capture ELISA, plate 1, mAb 7.5 ug/ml
[29] = biological target: HIV-1 JRCSF envelope (HIV-1) (UniProt P20871); assay: capture ELISA, plate 1, mAb 7.5 ug/ml
[30] = biological target: HIV-1 JRFL envelope (HIV-1); assay: capture ELISA, plate 1, mAb 7.5 ug/ml
[31] = biological target: HIV-1 envelope clone F1-002.c11 (multiclade gp160 clone panel) (HIV-1); assay: capture ELISA, plate 2, mAb 0.8 ug/ml
[32] = biological target: HIV-1 envelope clone BF-002.c05 (multiclade gp160 clone panel) (HIV-1); assay: capture ELISA, plate 2, mAb 0.8 ug/ml
[33] = biological target: HIV-1 envelope clone F1-002.c16 (multiclade gp160 clone panel) (HIV-1); assay: capture ELISA, plate 2, mAb 0.8 ug/ml
[34] = biological target: HIV-1 envelope clone F1-002.c11 (multiclade gp160 clone panel) (HIV-1); assay: capture ELISA, plate 1, mAb 0.3 ug/ml
[35] = biological target: HIV-1 envelope clone BF-002.c05 (multiclade gp160 clone panel) (HIV-1); assay: capture ELISA, plate 1, mAb 0.3 ug/ml
[36] = biological target: HIV-1 envelope clone BF-002.c08 (multiclade gp160 clone panel) (HIV-1); assay: capture ELISA, plate 1, mAb 0.3 ug/ml
[37] = biological target: HIV-1 envelope clone F1-002.c16 (multiclade gp160 clone panel) (HIV-1); assay: capture ELISA, plate 1, mAb 0.3 ug/ml
[38] = biological target: HIV-1 envelope clone BF-002.c05 (multiclade gp160 clone panel) (HIV-1); assay: capture ELISA, plate 1, mAb 7.5 ug/ml

Substance	ELISA OD [1]	ELISA OD [2]	ELISA OD [3]	ELISA OD [4]	ELISA OD [5]	ELISA OD [6]	ELISA OD [8]	ELISA OD [9]	ELISA OD [10]	ELISA OD [11]	ELISA OD [12]	ELISA OD [13]	ELISA OD [14]	ELISA OD [15]	ELISA OD [25]	ELISA OD [26]	ELISA OD [27]	ELISA OD [28]	ELISA OD [29]	ELISA OD [30]	other results
PG9 (antibody)	0.052 OD	0.125 OD	0.768 OD	0.067 OD	0.064 OD	0.104 OD	0.114 OD	0.089 OD	0.062 OD	0.564 OD	0.278 OD	0.158 OD and 0.171 OD	0.339 OD	0.073 OD	0.428 OD	0.084 OD and 0.072 OD	0.115 OD	0.891 OD	0.411 OD and 0.454 OD	0.072 OD and 0.11 OD	ELISA OD [7]: 0.184 OD and 0.188 OD; ELISA OD [16]: 0.066 OD and 0.072 OD; ELISA OD (original data) [17]: 0.068 OD; ELISA OD (original data) [18]: 1.25 OD; ELISA OD [19]: 0.75 OD; ELISA OD [20]: 0.547 OD; ELISA OD [21]: 2.42 OD; ELISA OD [22]: 1.06 OD; ELISA OD [23]: 3.69 OD; ELISA OD [24]: 0.685 OD
PG16 (antibody)	0.062 OD	0.132 OD	0.318 OD	0.105 OD	0.063 OD	0.085 OD	0.163 OD	0.083 OD	0.053 OD	0.288 OD	0.141 OD	0.122 OD and 0.186 OD	0.265 OD	0.062 OD	0.12 OD	0.103 OD and 0.072 OD	0.083 OD	0.332 OD	0.248 OD and 0.287 OD	0.173 OD and 0.159 OD	ELISA OD [31]: 0.12 OD; ELISA OD [32]: 0.586 OD; ELISA OD [33]: 0.302 OD; ELISA OD [34]: 0.088 OD; ELISA OD [35]: 0.352 OD; ELISA OD [36]: 0.109 OD; ELISA OD [37]: 0.229 OD; ELISA OD [38]: 0.971 OD
PGT145 (antibody)	0.071 OD	0.125 OD	0.059 OD	0.065 OD	0.084 OD	0.076 OD	0.099 OD	0.081 OD	0.058 OD	0.056 OD	0.06 OD	0.083 OD and 0.072 OD	0.055 OD	0.065 OD	0.104 OD	0.098 OD and 0.082 OD	0.109 OD	0.082 OD	0.071 OD and 0.084 OD	0.076 OD and 0.075 OD	ELISA OD [31]: 0.067 OD; ELISA OD [32]: 0.192 OD; ELISA OD [33]: 0.375 OD; ELISA OD [34]: 0.061 OD; ELISA OD [7]: 0.057 OD and 0.069 OD; ELISA OD [35]: 0.106 OD; ELISA OD [36]: 0.065 OD; ELISA OD [37]: 0.164 OD; ELISA OD [16]: 0.063 OD and 0.071 OD; ELISA OD (original data) [17]: 0.077 OD; ELISA OD (original data) [18]: 0.301 OD; ELISA OD [19]: 0.178 OD; ELISA OD [20]: 0.211 OD; ELISA OD [21]: 0.077 OD; ELISA OD [22]: 0.101 OD; ELISA OD [23]: 0.081 OD; ELISA OD [24]: 0.075 OD
PGT151 (antibody)	0.081 OD	0.135 OD	0.2 OD	0.087 OD	0.053 OD	0.064 OD	0.138 OD	0.104 OD	0.085 OD	0.195 OD	0.055 OD		0.118 OD	0.052 OD	0.094 OD	0.098 OD and 0.075 OD	0.11 OD	0.081 OD	0.073 OD and 0.086 OD	0.088 OD and 0.08 OD	ELISA OD [31]: 0.072 OD; ELISA OD [32]: 0.133 OD; ELISA OD [33]: 0.082 OD; ELISA OD [34]: 0.054 OD; ELISA OD [7]: 0.053 OD and 0.058 OD; ELISA OD [35]: 0.08 OD; ELISA OD [36]: 0.055 OD; ELISA OD [37]: 0.062 OD; ELISA OD [16]: 0.074 OD and 0.055 OD; ELISA OD (original data) [17]: 0.086 OD; ELISA OD (original data) [18]: 0.145 OD; ELISA OD [19]: 0.321 OD; ELISA OD [20]: 0.211 OD; ELISA OD [21]: 0.247 OD; ELISA OD [22]: 0.119 OD; ELISA OD [23]: 0.522 OD; ELISA OD [24]: 0.092 OD; ELISA OD [38]: 0.286 OD
PGV04 (antibody)	0.326 OD	0.659 OD	3.37 OD	0.913 OD	0.167 OD	0.08 OD	0.055 OD	0.287 OD	0.07 OD		0.07 OD	0.481 OD and 0.603 OD	0.093 OD	0.432 OD	1.37 OD	0.092 OD and 0.074 OD	0.237 OD	0.184 OD	2.15 OD and 2.33 OD		ELISA OD [31]: 0.084 OD; ELISA OD [32]: 2.07 OD; ELISA OD [33]: 0.139 OD; ELISA OD [34]: 0.082 OD; ELISA OD [35]: 0.881 OD; ELISA OD [36]: 0.663 OD; ELISA OD [37]: 0.083 OD; ELISA OD [38]: 4 OD
